Assay [1] deals with Cetuximab light chain F116C_Q124R_T178R. Put plainly: SMCA: H1, H2, L1, L2 co-expressed in CHO-3E7, protein A purified, LC-MS; competing light chain m6; against wild-type bispecific.
The target is the same in assay [2]. Put plainly: SMCA, LC-MS; change vs wild-type bispecific; competing light chain m14.
For assay [3], the target named is Cetuximab light chain Q38E_Q124E_Q160E_T180E. Put plainly: SMCA: H1, H2, L1, L2 co-expressed in CHO-3E7, protein A purified, LC-MS; competing light chain m14; against wild-type bispecific.
Assay [4] addresses Cetuximab light chain Q124E_L135W_Q160E_T180E. The assay is described as follows: SMCA, LC-MS; change vs wild-type bispecific; competing light chain m12.
The target of assay [5] is Cetuximab light chain Q124E_Q160E_T180E. Put plainly: SMCA, LC-MS; change vs wild-type bispecific; competing light chain m15.
For assay [6], the target named is tissue factor (TF) antigen (UniProt P13726). The assay is described as follows: SPR (ProteOn XPR36), Fab captured by His tag on anti-penta-His surface, TF injected as analyte, 1:1 fit; * = estimated from a Fab differing only in the L chain tag.
Assay [7] has the same target. Put plainly: SPR (ProteOn XPR36), Fab captured by His tag on anti-penta-His surface, TF injected as analyte; against wild-type D3H44 Fab; * = estimated from a Fab differing only in the L chain tag.
Assay [8] deals with D3H44 light chain F116C_Q124R_T178R. Put plainly: SMCA: 2 heavy + 2 light chains co-expressed, protein A, LC-MS; competing light chain m12.
Assay [9] has the same target. Put plainly: SMCA, LC-MS of 4 co-expressed chains; competing light chain m32.
Assay [10] has the same target. Put plainly: SMCA, LC-MS; change vs wild-type bispecific; competing light chain m32.
The target of assay [11] is D3H44 light chain F116A_Q124R_L135V_T178R. The assay is described as follows: SMCA, LC-MS; change vs wild-type bispecific; competing light chain m45.
The target is the same in assay [12]. The assay is described as follows: SMCA: 2 heavy + 2 light chains co-expressed, protein A, LC-MS; competing light chain m41.
Assay [13] shares this target. Put plainly: SMCA, LC-MS of 4 co-expressed chains; competing light chain m29.
Assay [14] shares this target. The assay is described as follows: SMCA, LC-MS; change vs wild-type bispecific; competing light chain m29.
Assay [15] concerns the target D3H44 light chain Q124R_T178R. Put plainly: SMCA, LC-MS of 4 co-expressed chains; competing light chain m30.
The target in assay [16] is D3H44 light chain Q124R_T178R. Put plainly: SMCA, LC-MS; change vs wild-type bispecific; competing light chain m30.
Assay [17] has as its target D3H44 light chain Q124R_T178R. The assay is described as follows: SMCA, LC-MS of 4 co-expressed chains; competing light chain m25.
Assay [18] concerns the target D3H44 light chain Q124R_T178R. Put plainly: SMCA: H1, H2, L1, L2 co-expressed in CHO-3E7, protein A, LC-MS; competitor light chain m34.
Assay [19] deals with D3H44 light chain Q124R_T178R. Put plainly: SMCA, LC-MS; change vs wild-type bispecific; competing light chain m25.
Assay [20] addresses D3H44 light chain Q124R_T178R. Put plainly: SMCA: H1, H2, L1, L2 co-expressed in CHO-3E7, protein A, LC-MS; competitor light chain m24.
Assay [21] addresses D3H44 light chain Q124R_T178R. Put plainly: SMCA, LC-MS of 4 co-expressed chains; competing light chain m27.
For assay [22], the target named is D3H44 light chain Q124R_T178R. Put plainly: SMCA, LC-MS; change vs wild-type bispecific; competing light chain m27.
In assay [23] the target is D3H44 light chain Q124R_T178R. Put plainly: SMCA: LC-MS of protein A purified product after co-expression of H1, H2, L1, L2 in CHO-3E7; competing light chain m51.
Assay [24] deals with D3H44 light chain Q124E_V133E. Put plainly: SMCA, LC-MS; change vs wild-type bispecific; competing light chain m42.
Assay [25] has as its target D3H44 light chain Q124E_V133E. The assay is described as follows: SMCA, LC-MS of 4 co-expressed chains; competing light chain m42.
Assay [26] addresses D3H44 light chain Q124E_V133E. Put plainly: SMCA, LC-MS; estimated change vs similar wild type (***); competing light chain m26.
In assay [27] the target is D3H44 light chain Q124E_V133E. The assay is described as follows: SMCA: 2 heavy + 2 light chains co-expressed, protein A, LC-MS; competing light chain m45.
The target in assay [28] is D3H44 light chain Q124E_V133E. The assay is described as follows: SMCA: LC-MS of protein A purified product after co-expression of H1, H2, L1, L2 in CHO-3E7; competing light chain m52.
The target of assay [29] is D3H44 light chain Q124E_V133E. Put plainly: SMCA, LC-MS of 4 co-expressed chains; competing light chain m26.
For assay [30], the target named is D3H44 light chain Q38E_Q124E_Q160E_T180E. The assay is described as follows: SMCA: H1, H2, L1, L2 co-expressed in CHO-3E7, protein A, LC-MS; competitor light chain m47.
Assay [31] shares this target. The assay is described as follows: SMCA: H1, H2, L1, L2 co-expressed in CHO-3E7, protein A purified, LC-MS; competing light chain m12; *** estimated change against a similar wild-type construct.
Assay [32] has the same target. Put plainly: SMCA: H1, H2, L1, L2 co-expressed in CHO-3E7, protein A purified, LC-MS; competing light chain m12.
Assay [33] concerns the target D3H44 light chain Q124E_Q160E_T180E. The assay is described as follows: SMCA, LC-MS of 4 co-expressed chains; competing light chain m31.
The target of assay [34] is D3H44 light chain Q124E_L135W_Q160E_T180E. The assay is described as follows: SMCA, LC-MS of 4 co-expressed chains; competing light chain m28.
Assay [35] deals with D3H44 light chain Q124E_Q160E_T180E. The assay is described as follows: SMCA, LC-MS of 4 co-expressed chains; competing light chain m48.
For assay [36] the target is unchanged. The assay is described as follows: SMCA, LC-MS; change vs wild-type bispecific; competing light chain m31.
In assay [37] the target is D3H44 light chain Q124E_L135W_Q160E_T180E. Put plainly: SMCA: H1, H2, L1, L2 co-expressed in CHO-3E7, protein A, LC-MS; competitor light chain m32.
In assay [38] the target is D3H44 light chain Q124E_Q160E_T180E. Put plainly: SMCA: H1, H2, L1, L2 co-expressed in CHO-3E7, protein A, LC-MS; competitor light chain m37.
The target of assay [39] is D3H44 light chain Q124E_L135W_Q160E_T180E. Put plainly: SMCA, LC-MS; change vs wild-type bispecific; competing light chain m28.
Assay [40] deals with D3H44 light chain Q124E_Q160E_T180E. Put plainly: SMCA, LC-MS; change vs wild-type bispecific; competing light chain m48.
The target of assay [41] is D3H44 light chain Q124E_Q160E_T178E. Put plainly: SMCA, LC-MS; change vs wild-type bispecific; competing light chain m42.
Assay [42] has as its target D3H44 light chain Q124E_S176L_T180E. Put plainly: SMCA, LC-MS; change vs wild-type bispecific; competing light chain m26.
In assay [43] the target is D3H44 light chain Q124E_Q160E_T178E. The assay is described as follows: SMCA, LC-MS of 4 co-expressed chains; competing light chain m42.
Assay [44] has the same target. The assay is described as follows: SMCA, LC-MS; estimated change vs similar wild type (***); competing light chain m26.
For assay [45], the target named is D3H44 light chain Q124E_S176L_T180E. The assay is described as follows: SMCA: 2 heavy + 2 light chains co-expressed, protein A, LC-MS; competing light chain m16.
In assay [46] the target is D3H44 light chain Q124E_S131T_T178Y_T180E. The assay is described as follows: SMCA: LC-MS of protein A purified product after co-expression of H1, H2, L1, L2 in CHO-3E7; competing light chain m52.
For assay [47], the target named is D3H44 light chain Q124E_Q160E_T178E. The description is as above.
Assay [48] deals with D3H44 light chain S131E. Put plainly: SMCA: LC-MS of protein A purified product after co-expression of H1, H2, L1, L2 in CHO-3E7; competing light chain m53.
For assay [49], the target named is D3H44 light chain Q124E_Q160E_T178E. The assay is described as follows: SMCA, LC-MS of 4 co-expressed chains; competing light chain m26.
Assay [50] deals with D3H44 light chain Q124E_S176L_T180E. Described as above.

Results on 12 substances are retold here after patent publication US11306156.

By Kd is commonly meant the concentration at which binding is half-saturated.

Turning to “Cetuximab heavy chain A139C_L143E_K145T_Q179E”, the results for the Change in % H2L2 Pairing (over all H2 species) with respect to wild type in [1] and in [2] were 3% and 0%, respectively.

The substance Cetuximab heavy chain Q39R_H172R_Q179K yielded a Change in % H2L2 Pairing (over all H2 species) with respect to wild type in assay [3] of 0.6%.

With Cetuximab heavy chain Q179K, the results for the Change in % H2L2 Pairing (over all H2 species) with respect to wild type in assay [4] and in assay [5] were 1.7% and 0%, respectively.

Regarding “D3H44 H1L1 Fab heterodimer of LCCA Set # 9645 (H1 L143E_K145T_Q179E, L1 Q124K_T178R)”, in assay [6], the Kd was 0.14 nM. Besides, the change in median KD compared to wild type, -(log(KD design)-log(KD wt)) in assay [7] was 0.05 log.

Take “D3H44 heavy chain A139C_L143E_K145T_Q179E (from UniProt P0DOX5 2-448)”: the % H1L1 Pairing (over all H1 species) in assay [8] and in assay [9] was 100% throughout. Besides, the Change in % H1L1 Pairing (over all H1 species) with respect to wild type in [10] was determined as 38.1%.

As for “D3H44 heavy chain A139W_L143E_K145T_Q179E (from UniProt P0DOX5 2-448)”, the Change in % H1L1 Pairing (over all H1 species) with respect to wild type stood at 58.1% in assay [11] and 41.9% in assay [14]. In addition, the % H1L1 Pairing (over all H1 species) in assay [12] and in assay [13] was 100% throughout.

Turning to “D3H44 heavy chain L143E_K145T_Q179E (from UniProt P0DOX5 2-448)”, the % H1L1 Pairing (over all H1 species) in assay [15], in assay [17], in assay [18] and in [20] was 100% in each case. In addition, the Change in % H1L1 Pairing (over all H1 species) with respect to wild type in assay [16] and in assay [19] was 38.1% each time.

Regarding “D3H44 heavy chain L143E_K145T_Q179E_S188L (from UniProt P0DOX5 2-448)”, the % H1L1 Pairing (over all H1 species) in assay [21] and in assay [23] was 94.3% each time. Further, the Change in % H1L1 Pairing (over all H1 species) with respect to wild type in assay [22] came out at 32.4%.

As for “D3H44 heavy chain L143R (from UniProt P0DOX5 2-448)”, the Change in % H1L1 Pairing (over all H1 species) with respect to wild type in assay [24] is 59.8%; in assay [26], 43.3%. Also, the % H1L1 Pairing (over all H1 species) in assay [25] is 97.1%; in [27], 100%; in assay [28], 100%; in [29], 100%.

For the substance “D3H44 heavy chain Q39R_H172R_Q179K (from UniProt P0DOX5 2-448)”, the % H1L1 Pairing (over all H1 species) in assay [30] and in assay [32] was 100% throughout. The Change in % H1L1 Pairing (over all H1 species) with respect to wild type in [31] is 43.3%.

“D3H44 heavy chain Q179K (from UniProt P0DOX5 2-448)”: the % H1L1 Pairing (over all H1 species) in assay [33], in [34], in [35], in assay [37] and in assay [38] was 100% throughout. For the same substance, the Change in % H1L1 Pairing (over all H1 species) with respect to wild type in assay [36] was determined as 52.5%; in assay [39], 38.1%; in [40], 62.7%.

With “D3H44 heavy chain S186K (from UniProt P0DOX5 2-448)”, the Change in % H1L1 Pairing (over all H1 species) with respect to wild type in assay [41] was 60.9%; in assay [42], 52.5%; in assay [44] it was 43.3%. Also, the % H1L1 Pairing (over all H1 species) in assay [43] worked out at 98.2%; in [45], 100%; in assay [46] it was 100%; in [47], 100%; in assay [48] it was 100%; in assay [49] it was 100%. Moreover, the % H1L1 Pairing (over all H1 species) in assay [50] stood at 100%.
